Experimental findings from patent US20170073386A1 (AstraZeneca / MedImmune, published 2017) are described below.

In test [1] the target is T1, human GITR expressed on cells (human, UniProt Q9Y5U5 26-241).
T1 sequence: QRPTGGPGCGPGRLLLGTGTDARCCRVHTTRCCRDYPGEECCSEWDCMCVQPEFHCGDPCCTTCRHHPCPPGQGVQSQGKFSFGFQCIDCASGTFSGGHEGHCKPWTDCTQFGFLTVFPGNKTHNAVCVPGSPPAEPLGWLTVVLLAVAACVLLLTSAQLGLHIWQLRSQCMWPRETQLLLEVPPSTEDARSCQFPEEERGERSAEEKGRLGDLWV
Nature of the test: cell-based or functional assay.

In test [2] the target is T2, human GITR-Fc (human, UniProt Q9Y5U5 26-162, conjugated with europium cryptate in the HTRF assays).
T2 construct: also called hGITR-Fc; hGITRFc; not shown: Fc domain of hIgG1
T2 sequence: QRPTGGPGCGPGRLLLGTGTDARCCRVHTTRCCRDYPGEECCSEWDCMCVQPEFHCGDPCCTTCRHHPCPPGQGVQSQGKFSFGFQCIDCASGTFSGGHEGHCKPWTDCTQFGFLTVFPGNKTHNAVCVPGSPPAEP
Nature of the test: HTRF competition; competitor GITRL-HA on GITR-Fc. The protocol:
(§1) The hexameric GITRL FP molecules were titrated into an HTRF assay in which binding of GITRL-HA (hemagglutinin tag) to GITR-Fc was measured. The human GITR Fc was conjugated with europium cryptate and an anti-HA antibody conjugated with XL665 was used to detect the GITRL-HA protein. IC₅₀ values were determined by curve fitting the analyzed data to a four parameter logistic equation with Prism 5.01 software (GraphPad).
The effect of a hexameric GITRL IgG1 FP having the monomeric GITRL IgG1 FP subunit sequence of SEQ ID NO: 6 on human GITRL binding to human GITR was determined using a Homogeneous Time Resolved Fluorescence (HTRF) assay. The GITRL IgG1 FP was titrated into an HTRF assay in which binding of GITRL-HA (hemagglutinin tag) to GITR-Fc was measured. The human GITR-Fc was conjugated with europium cryptate and an anti-HA antibody conjugated with XL665 was used to detect the GITRL-HA protein. IC₅₀ values were determined by curve fitting the analyzed data to a four parameter logistic equation with Prism 6.0x software (GraphPad).

In test [3] the target is T2, human GITR-Fc. In words: HTRF competition; competitor GITRL-HA on GITR-Fc. The protocol:
The effect of the hexameric GITRL FP molecules on human GITRL binding to human GITR was determined using a Homogeneous Time Resolved Fluorescence (HTRF) assay.
as §1
This is another data set of the same source.

For test [4], the target named is T3, recombinant mouse GITR-Fc (mouse, UniProt O35714 20-153, limits assumed).
T3 construct: Bought reagent; construct not described; not shown: Fc
T3 sequence (looked up): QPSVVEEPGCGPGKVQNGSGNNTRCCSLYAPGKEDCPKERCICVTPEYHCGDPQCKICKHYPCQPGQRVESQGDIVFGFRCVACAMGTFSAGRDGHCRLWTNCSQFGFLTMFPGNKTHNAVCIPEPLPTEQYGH
In words: ELISA, coated mouse GITR-Fc, HRP anti-mouse Fc. Here is the method: (§2) Recombinant mouse GITR-Fc and OX40-Fc (R&D Systems) glycoproteins were coated overnight at 1 μg/mL in PBS onto 96-well plates (Greiner). Plates were washed with PBST (PBS+0.01% Tween-20), blocked for 1 hour at room temperature with PBS containing 1% (w/v) BSA, and washed in PBST again. Twenty-five microlitres of 1 μg/mL mouse GITRL or OX40L FPs diluted in assay buffer [PBS+1% bovine serum albumin (BSA)] was added to wells, and plates were incubated for 2 hours at room temperature. After 3 washes, 25 μL of 1 μg/mL horseradish peroxidase-conjugated anti-mouse Fc antibody (Sigma) diluted in assay buffer was added to each well, and plates were incubated for 1 hour. After incubation, plates were washed 3 times in PBST, 25 μL of tetramethylbenzidine substrate solution (KPL) was added to each well, and plates incubated for 5 minutes. After incubation 15 μL of 0.5 M sulphuric acid stop solution was added to all wells. The optical density at 450 nm was measured using an EnVision plate reader (PerkinElmer).

Test [5] addresses T4, recombinant mouse OX40-Fc (mouse, UniProt P47741 20-211, limits assumed).
T4 construct: Bought reagent; construct not described; not shown: Fc
T4 sequence (looked up): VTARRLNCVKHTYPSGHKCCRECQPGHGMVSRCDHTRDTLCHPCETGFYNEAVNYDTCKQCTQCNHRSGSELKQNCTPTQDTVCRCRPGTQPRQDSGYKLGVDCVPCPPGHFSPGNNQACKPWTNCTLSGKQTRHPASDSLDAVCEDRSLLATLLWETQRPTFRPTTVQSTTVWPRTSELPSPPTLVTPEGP
Nature of the test: ELISA, coated mouse OX40-Fc, FP at 1 ug/mL, HRP anti-mouse Fc. Here is the method:
as §2

B1: hexameric GITRL FP (Langerin wt) (Fc fusion, not shown: a dimerising Fc or GST; small tags and cut ends)
chain (part 1 of 2): ASALNTKIRALQGSLENMSKLLKRQNDILQVVS
chain (part 2 of 2): LQLETAKEPCMAKFGPLPSKWQMASSEPPCVNKVSDWKLEILQNGLYLIYGQVAPNANYNDVAPFEVRLYKNKDMIQTLTNKSKIQNVGGTYELHVGDTIDLIFNSEHQVLKNNTYWGIILLANPQFIS
In the case of B1, in test [1], the “EC50 (nM), human GITR transfected NF-κB luciferase gene reporter cell line” value worked out at 1.54 nM. Also, in the test with human GITR-Fc [2], the “fold lower potency than GITRL FP (GCN4)” value amounted to 8 fold. For the same molecule, the IC50 in the test with human GITR-Fc [3] is 8.05 nM.

B2: mOX40L-FP mIgG1 (Fc fusion)
chain: VPRDCGCKPCICTVPEVSSVFIFPPKPKDVLTITLTPKVTCVVVDISKDDPEVQFSWFVDDVEVHTAQTQPREEQFNSTFRSVSELPIMHQDWLNGKEFKCRVNSAAFPAPIEKTISKTKGRPKAPQVYTIPPPKEQMAKDKVSLTCMITDFFPEDITVEWQWNGQPAENYKNTQPIMDTDGSYFVYSKLNVQKSNWEAGNTFTCSVLHEGLHNHHTEKSLSHSPGKRLDQDKIEALSNKVQQLERSIGLKDLAMADLEQKVSELEVSTSSPAKDPPIQRLRGAVTRCEDGQLFISSYKNEYQTMEVQNNSVVIKCDGLYIIYLKGSFFQEVKIDLHFREDHNPISIPMLNDGRRIVFTVVASLAFKDKVYLTVNAPDTLCEHLQINDGELIVVQLTPGYCAPEGSYHSTVNQVPL
notes: also called murine OX40L FP mIgG1; Mouse OX40L FP mIgG1
Turning to B2, the binding result in test [4] was “no binding”; in test [5], “binds”.
